Experimental data as given in patent US20200283741.
Where a chain is given by its changes, count along the chain named. Names may count otherwise.

T1: HbA1c-type αF8P (α-fructosyl-valyl-histidyl-leucyl-threonyl-prolyl-glutamyl-glutamyl-lysine)
T1 chain: VHLTPEEK

T2: HbC1c-type αF8P
T2 chain: VHLTPKEK

T3: HbS1c-type αF8P
T3 chain: VHLTPVEK

B1: En42FX R105L (protein)
chain: MAPRANTKIIVVGGGGTMGSSTALHLLRAGYTPSNITVLDTYPIPSAQSAGYDLNKIFGISGANKHDLQLSLEAFDMWKNDPLFKPFFHNVGQMDVSSTEEGIKLLRRRYQSLLRAGIGLEKTNFLLESEDEILAKAPHFTREQIKGWKGLFCGDGGWLAAAKAINAIGQFLKEQGVKFGFGEAGTFKKPLFADADEKTCIGVETVDGTKYYADKVVLAAGAWSSTLVDLEEQCVSKAWVFAHIQLTPAEAAAYKNTPVIYDGDYGFFIEPDENGIIKVCDEFPGFTHFKMHQPYGSPVPKLISVPRSHAKHPTDTYPHASEVTIKKAINRFLPRFNDKELFNRAMCWCTDTADSNLLVCEHPRWKGFYLATGDSGHSFKLLPNIGKHVVELLEGRLESVFKDAWRWRPGSGDALKSRRAAPAKDLADMPGWRNEAKM
B2: En42FX R105E (protein)
chain: B1 chain with L105E
B3: En42FX R105Q (protein)
chain: B1 chain with L105Q
B4: En42FX R105N (protein)
chain: B1 chain with L105N
B5: glycated hexapeptide oxidase derived from Emericella nidulans (En42FX) (protein)
chain: B1 chain with L105R
B6: En42FX R108A (protein)
chain: B1 chain with L105R, R108A
B7: En42FX R105A (protein)
chain: B1 chain with L105A
B8: En42FX R105D (protein)
chain: B1 chain with L105D
B9: En42FX R108S (protein)
chain: B1 chain with L105R, R108S
B10: CFP-T7-H40-3M K106A (protein)
chain: MTSNRADTRVIVVGGGGTIGSSTALHLVRSGYAPANITVLDTFEIPSAQSAGHDLNKIMGIDHGNKVNLQMSLEARQMWKEDELFQPFFHNTGRMDCESTPKGIEALKKYYQKLHDAGAGLEKTHAWLDNEDEILSKMPLLQRDQIQGWKAIWSQDGGWLAAAKAINAIGQFLKERGVKFGFGGAGSFKQPLFDDEGTTCIGVETADGTKYYADKVVLAAGAWSPTLVDLEDQCCSKAWVYAHIQLTPEEAAEYKGVPVVYNSEYGFFFEPDEFGVIKVCNEFPGFSRFKEHQPYGAPSPKRISVPRSHAKHPTDTYPDASEVSIKKAIATFLPRFQDKELFNRALCWCTDTADSTLLMCEHPKWKNFILATGDSGHSFKILPNVGKYVVELIEGRLPEEMAYQWRWRPGGDALKSRRAAPPKDLADMPGWKHDPKL
B11: CFP-T7-H40-3M K113S (protein)
chain: B10 chain with A106K, K113S
B12: CFP-T7-H40-3M K113D (protein)
chain: B10 chain with A106K, K113D
B13: CFP-T7-H40-3M K113N (protein)
chain: B10 chain with A106K, K113N
B14: CFP-T7-H40-3M K106D (protein)
chain: B10 chain with A106D
B15: CFP-T7-H40-3M K113T (protein)
chain: B10 chain with A106K, K113T
B16: CFP-T7-H40-3M K113Q (protein)
chain: B10 chain with A106K, K113Q
B17: CFP-T7-H40-3M K113E (protein)
chain: B10 chain with A106K, K113E
B18: CFP-T7-H40-3M K113A (protein)
chain: B10 chain with A106K, K113A

Experiments:
[1] = molecular target: T1, HbA1c-type αF8P …
[2] = molecular target: T2, HbC1c-type αF8P
[3] = molecular target: T3, HbS1c-type αF8P

Protein	relative activity on substrate (reference, designated as 100%) [1]	relative activity (HbC1c/HbA1c), fold over En42FX before modification [2]	relative activity on substrate (activity on HbA1c-type αF8P = 100%) [2]	relative activity on substrate (activity on HbA1c-type αF8P = 100%) [3]	specific activity on substrate [1]	relative activity (HbC1c/HbA1c), fold over H40-3M before modification [2]	specific activity on substrate [2]	relative activity (HbS1c/HbA1c), fold over H40-3M before modification [3]	specific activity on substrate [3]
B1	100%	improved by about 1.1 to 10.8 times	9%	64%	–	–	–	–	–
B2	100%	–	31%	69%	–	–	–	–	–
B3	100%	–	25%	70%	–	–	–	–	–
B4	100%	–	11%	95%	–	–	–	–	–
B5	100%	–	8%	41%	–	–	–	–	–
B6	100%	–	57%	70%	–	–	–	–	–
B7	100%	–	33%	70%	–	–	–	–	–
B8	100%	improved by about 1.1 to 10.8 times	86%	114%	–	–	–	–	–
B9	100%	–	10%	61%	–	–	–	–	–
B10	100%	–	31%	81%	at least 20 mU/mg	improved by about 2.8 to 9.4 times	at least 20 mU/mg	improved by about 2.1 to 3.3 times	at least 20 mU/mg
B11	100%	–	103%	130%	at least 20 mU/mg	improved by about 2.8 to 9.4 times	at least 20 mU/mg	improved by about 2.1 to 3.3 times	at least 20 mU/mg
B12	100%	–	39%	93%	at least 20 mU/mg	–	at least 20 mU/mg	–	at least 20 mU/mg
B13	100%	–	42%	95%	at least 20 mU/mg	–	at least 20 mU/mg	–	at least 20 mU/mg
B14	100%	–	48%	83%	at least 20 mU/mg	–	at least 20 mU/mg	–	at least 20 mU/mg
B15	100%	–	40%	104%	at least 20 mU/mg	–	at least 20 mU/mg	–	at least 20 mU/mg
B16	100%	–	50%	106%	at least 20 mU/mg	–	at least 20 mU/mg	–	at least 20 mU/mg
B17	100%	–	91%	97%	at least 20 mU/mg	–	at least 20 mU/mg	–	at least 20 mU/mg
B18	100%	–	38%	104%	at least 20 mU/mg	–	at least 20 mU/mg	–	at least 20 mU/mg
